For twelve variants, ratio to parent and response results are on record in publication PMC7545097, “Mapping the native interaction surfaces of PREP1 with PBX1 by cross-linking mass-spectrometry and mutagenesis” (Scientific Reports, 2020).

B1: PBX1_(1-430), wild-type recombinant [human] / PREP1_(1-436), wild-type recombinant (TR-FIA) [not stated] (parent complex)
chain 1: MDEQPRLMHSHAGVGMAGHPGLSQHLQDGAGGTEGEGGRKQDIGDILQQIMTITDQSLDEAQARKHALNCHRMKPALFNVLCEIKEKTVLSIRGAQEEEPTDPQLMRLDNMLLAEGVAGPEKGGGSAAAAAAAAASGGAGSDNSVEHSDYRAKLSQIRQIYHTELEKYEQACNEFTTHVMNLLREQSRTRPISPKEIERMVSIIHRKFSSIQMQLKQSTCEAVMILRSRFLDARRKRRNFNKQATEILNEYFYSHLSNPYPSEEAKEELAKKCGITVSQVSNWFGNKRIRYKKNIGKFQEEANIYAAKTAVTATNVSAHGSQANSPSTPNSAGSSSSFNMSNSGDLFMSVQSLNGDSYQGAQVGANVQSQVDTLRHVISQTGGYSDGLAASQMYSPQGISANGGWQDATTPSSVTSPTEGPGSVHSDTSN
chain 2: MMATQTLSIDSYQDGQQMQVVTELKTEQDPNCSEPDAEGVSPPPVESQTPMDVDKQAIYRHPLFPLLALLFEKCEQSTQGSEGTTSASFDVDIENFVRKQEKEGKPFFCEDPETDNLMVKAIQVLRIHLLELEKVNELCKDFCSRYIACLKTKMNSETLLSGEPGSPYSPVQSQQIQSAITGTISPQGIVVPASALQQGNVAMATVAGGTVYQPVTVVTPQGQVVTQTLSPGTIRIQNSQLQLQLNQDLSILHQDDGSSKNKRGVLPKHATNVMRSWLFQHIGHPYPTEDEKKQIAAQTNLTLLQVNNWFINARRRILQPMLDSSCSETPKTKKKTAQNRPVQRFWPDSIASGVAQPPPSELTMSEGAVVTITTPVNMNVDSLQSLSSDGATLAVQQVMMAGQSEDESVDSTEEDAGALAPAHISGLVLENSDSLQ
B2: N-terminal GST-fused wild-type PREP1 [not stated] / PBX1_(1-430), wild-type recombinant [human] (parent complex)
chain 1: B1 chain 2
chain 2: B1 chain 1

The first experiment covers variants of B1. As to the kind of experiment: TR-FIA; parent: 1; read off a plot.
chain 1 MDEQPRLMHSHAGVGMAGHPGLSQHLQDGAGGTEGEGGRKQDIGDILQQAMTATDQSLDEAQARKHALNCHRMKPALFNVLCEIKEKTVLSIRGAQEEEPTDPQLMRLDNMLLAEGVAGPEKGGGSAAAAAAAAASGGAGSDNSVEHSDYRAKLSQIRQIYHTELEKYEQACNEFTTHVMNLLREQSRTRPISPKEIERMVSIIHRKFSSIQMQLKQSTCEAVMILRSRFLDARRKRRNFNKQATEILNEYFYSHLSNPYPSEEAKEELAKKCGITVSQVSNWFGNKRIRYKKNIGKFQEEANIYAAKTAVTATNVSAHGSQANSPSTPNSAGSSSSFNMSNSGDLFMSVQSLNGDSYQGAQVGANVQSQVDTLRHVISQTGGYSDGLAASQMYSPQGISANGGWQDATTPSSVTSPTEGPGSVHSDTSN [chain 1 I50A, chain 1 I53A]: the ratio to parent is about 0.83.

Consider chain 1 MDEQPRLMHSHAGVGMAGHPGLSQHLQDGAGGTEGEGGRKQDIGDILQQIMTITDQSLDEAQARKHALNCHRMKPALFNVACEIKEKTVLSIRGAQEEEPTDPQLMRLDNMLLAEGVAGPEKGGGSAAAAAAAAASGGAGSDNSVEHSDYRAKLSQIRQIYHTELEKYEQACNEFTTHVMNLLREQSRTRPISPKEIERMVSIIHRKFSSIQMQLKQSTCEAVMILRSRFLDARRKRRNFNKQATEILNEYFYSHLSNPYPSEEAKEELAKKCGITVSQVSNWFGNKRIRYKKNIGKFQEEANIYAAKTAVTATNVSAHGSQANSPSTPNSAGSSSSFNMSNSGDLFMSVQSLNGDSYQGAQVGANVQSQVDTLRHVISQTGGYSDGLAASQMYSPQGISANGGWQDATTPSSVTSPTEGPGSVHSDTSN [chain 1 L81A], for which the ratio to parent was about 0.52.

Turning to chain 1 MDEQPRLMHSHAGVGMAGHPGLSQHLQDGAGGTEGEGGRKQDIGDILQQIMTITDQSLDEAQARKHALNCHRMKPALFNVLCEIKEKTVLSIRGAQEEEPTDPQAMRADNMLAAEGVAGPEKGGGSAAAAAAAAASGGAGSDNSVEHSDYRAKLSQIRQIYHTELEKYEQACNEFTTHVMNLLREQSRTRPISPKEIERMVSIIHRKFSSIQMQLKQSTCEAVMILRSRFLDARRKRRNFNKQATEILNEYFYSHLSNPYPSEEAKEELAKKCGITVSQVSNWFGNKRIRYKKNIGKFQEEANIYAAKTAVTATNVSAHGSQANSPSTPNSAGSSSSFNMSNSGDLFMSVQSLNGDSYQGAQVGANVQSQVDTLRHVISQTGGYSDGLAASQMYSPQGISANGGWQDATTPSSVTSPTEGPGSVHSDTSN [chain 1 L105A, chain 1 L108A, chain 1 L113A], the ratio to parent was about 0.66.

A further experiment covers variants of B2. As to the kind of experiment: TR-FIA; parent: 1; read off a plot.
Take chain 1 MMATQTLSIDSYQDGQQMQVVTELKTEQDPNCSEPDAEGVSPPPVESQTPMDVDKQAIYRHPAFPLLALLFEKCEQSTQGSEGTTSASFDVDIENFVRKQEKEGKPFFCEDPETDNLMVKAIQVLRIHLLELEKVNELCKDFCSRYIACLKTKMNSETLLSGEPGSPYSPVQSQQIQSAITGTISPQGIVVPASALQQGNVAMATVAGGTVYQPVTVVTPQGQVVTQTLSPGTIRIQNSQLQLQLNQDLSILHQDDGSSKNKRGVLPKHATNVMRSWLFQHIGHPYPTEDEKKQIAAQTNLTLLQVNNWFINARRRILQPMLDSSCSETPKTKKKTAQNRPVQRFWPDSIASGVAQPPPSELTMSEGAVVTITTPVNMNVDSLQSLSSDGATLAVQQVMMAGQSEDESVDSTEEDAGALAPAHISGLVLENSDSLQ [chain 1 L63A]: the ratio to parent is about 0.6.

In the case of chain 1 MMATQTLSIDSYQDGQQMQVVTELKTEQDPNCSEPDAEGVSPPPVESQTPMDVDKQAIYRHPLFPLLAALFEKCEQSTQGSEGTTSASFDVDIENFVRKQEKEGKPFFCEDPETDNLMVKAIQVLRIHLLELEKVNELCKDFCSRYIACLKTKMNSETLLSGEPGSPYSPVQSQQIQSAITGTISPQGIVVPASALQQGNVAMATVAGGTVYQPVTVVTPQGQVVTQTLSPGTIRIQNSQLQLQLNQDLSILHQDDGSSKNKRGVLPKHATNVMRSWLFQHIGHPYPTEDEKKQIAAQTNLTLLQVNNWFINARRRILQPMLDSSCSETPKTKKKTAQNRPVQRFWPDSIASGVAQPPPSELTMSEGAVVTITTPVNMNVDSLQSLSSDGATLAVQQVMMAGQSEDESVDSTEEDAGALAPAHISGLVLENSDSLQ [chain 1 L69A], the ratio to parent is about 1.1.

Consider chain 1 MMATQTLSIDSYQDGQQMQVVTELKTEQDPNCSEPDAEGVSPPPVESQTPMDVDKQAIYRHPLFPLLALLFEKCEQSTQGSEGTTSASFDVDIENFVRKQEKEGKPFFCEDPETDNAMVKAIQVLRIHLLELEKVNELCKDFCSRYIACLKTKMNSETLLSGEPGSPYSPVQSQQIQSAITGTISPQGIVVPASALQQGNVAMATVAGGTVYQPVTVVTPQGQVVTQTLSPGTIRIQNSQLQLQLNQDLSILHQDDGSSKNKRGVLPKHATNVMRSWLFQHIGHPYPTEDEKKQIAAQTNLTLLQVNNWFINARRRILQPMLDSSCSETPKTKKKTAQNRPVQRFWPDSIASGVAQPPPSELTMSEGAVVTITTPVNMNVDSLQSLSSDGATLAVQQVMMAGQSEDESVDSTEEDAGALAPAHISGLVLENSDSLQ [chain 1 L117A], for which the ratio to parent was about 0.48.

For the variant chain 1 MMATQTLSIDSYQDGQQMQVVTELKTEQDPNCSEPDAEGVSPPPVESQTPMDVDKQAIYRHPLFPLLALLFEKCEQSTQGSEGTTSASFDVDIENFVRKQEKEGKPFFCEDPETDNLMVKAIQVLRIHLLELEKVNELCKDFCSRYIACLKTKMNSETLLSGEPGSPYSPVQSQQIQSAITGTISPQGIVVPASALQQGNVAMATVAGGTVYQPVTVVTPQGQVVTQTLSPGTIRIQNSQLQLQLNQDASILHQDDGSSKNKRGVLPKHATNVMRSWLFQHIGHPYPTEDEKKQIAAQTNLTLLQVNNWFINARRRILQPMLDSSCSETPKTKKKTAQNRPVQRFWPDSIASGVAQPPPSELTMSEGAVVTITTPVNMNVDSLQSLSSDGATLAVQQVMMAGQSEDESVDSTEEDAGALAPAHISGLVLENSDSLQ [chain 1 L249A], the ratio to parent was about 0.96.

In the case of chain 1 MMATQTLSIDSYQDGQQMQVVTELKTEQDPNCSEPDAEGVSPPPVESQTPMDVDKQAIYRHPAFPAAALAFEKCEQSTQGSEGTTSASFDVDIENFVRKQEKEGKPFFCEDPETDNLMVKAIQVLRIHLLELEKVNELCKDFCSRYIACLKTKMNSETLLSGEPGSPYSPVQSQQIQSAITGTISPQGIVVPASALQQGNVAMATVAGGTVYQPVTVVTPQGQVVTQTLSPGTIRIQNSQLQLQLNQDLSILHQDDGSSKNKRGVLPKHATNVMRSWLFQHIGHPYPTEDEKKQIAAQTNLTLLQVNNWFINARRRILQPMLDSSCSETPKTKKKTAQNRPVQRFWPDSIASGVAQPPPSELTMSEGAVVTITTPVNMNVDSLQSLSSDGATLAVQQVMMAGQSEDESVDSTEEDAGALAPAHISGLVLENSDSLQ [chain 1 L63A, chain 1 L66A, chain 1 L67A, chain 1 L70A], the ratio to parent is about 0.58.

For chain 1 MMATQTLSIDSYQDGQQMQVVTELKTEQDPNCSEPDAEGVSPPPVESQTPMDVDKQAIYRHPLFPLLALLFEKCEQSTQGSEGTTSASFDVDIENFVRKQEKEGKPFFCEDPETDNLMVKAIQALRIHLLELEKVNELCKDFCSRYIACLKTKMNSETLLSGEPGSPYSPVQSQQIQSAITGTISPQGIVVPASALQQGNVAMATVAGGTVYQPVTVVTPQGQVVTQTLSPGTIRIQNSQLQLQLNQDLSILHQDDGSSKNKRGVLPKHATNVMRSWLFQHIGHPYPTEDEKKQIAAQTNLTLLQVNNWFINARRRILQPMLDSSCSETPKTKKKTAQNRPVQRFWPDSIASGVAQPPPSELTMSEGAVVTITTPVNMNVDSLQSLSSDGATLAVQQVMMAGQSEDESVDSTEEDAGALAPAHISGLVLENSDSLQ [chain 1 V124A], the ratio to parent is about 0.91.

For the variant chain 1 MMATQTLSIDSYQDGQQMQVVTELKTEQDPNCSEPDAEGVSPPPVESQTPMDVDKQAIYRHPLFPLLALLFEKCEQSTQGSEGTTSASFDVDIENFVRKQEKEGKPFFCEDPETDNLMVKAAQVLRIHLLELEKVNELCKDFCSRYIACLKTKMNSETLLSGEPGSPYSPVQSQQIQSAITGTISPQGIVVPASALQQGNVAMATVAGGTVYQPVTVVTPQGQVVTQTLSPGTIRIQNSQLQLQLNQDLSILHQDDGSSKNKRGVLPKHATNVMRSWLFQHIGHPYPTEDEKKQIAAQTNLTLLQVNNWFINARRRILQPMLDSSCSETPKTKKKTAQNRPVQRFWPDSIASGVAQPPPSELTMSEGAVVTITTPVNMNVDSLQSLSSDGATLAVQQVMMAGQSEDESVDSTEEDAGALAPAHISGLVLENSDSLQ [chain 1 I122A], the ratio to parent was about 0.79.

For the variant chain 1 MMATQTLSIDSYQDGQQMQVVTELKTEQDPNCSEPDAEGVSPPPVESQTPMDVDKQAIYRHPLFPLLALLFEKCEQSTQGSEGTTSASFDVDIENFVRKQEKEGKPFFCEDPETDNLMVKAIQVLRIHLLELEKVNELCKDFCSRYIACLKTKMNSETLLSGEPGSPYSPVQSQQIQSAITGTISPQGIVVPASALQQGNVAMATVAGGTVYQPVTVVTPQGQVVTQTLSPGTIRIQNSQLQLQLNQDLSALHQDDGSSKNKRGVLPKHATNVMRSWLFQHIGHPYPTEDEKKQIAAQTNLTLLQVNNWFINARRRILQPMLDSSCSETPKTKKKTAQNRPVQRFWPDSIASGVAQPPPSELTMSEGAVVTITTPVNMNVDSLQSLSSDGATLAVQQVMMAGQSEDESVDSTEEDAGALAPAHISGLVLENSDSLQ [chain 1 I251A], the ratio to parent is about 0.88.

On to chain 1 MMATQTLSIDSYQDGQQMQVVTELKTEQDPNCSEPDAEGVSPPPVESQTPMDVDKQAIYRHPLFPLAALLFEKCEQSTQGSEGTTSASFDVDIENFVRKQEKEGKPFFCEDPETDNLMVKAIQVLRIHLLELEKVNELCKDFCSRYIACLKTKMNSETLLSGEPGSPYSPVQSQQIQSAITGTISPQGIVVPASALQQGNVAMATVAGGTVYQPVTVVTPQGQVVTQTLSPGTIRIQNSQLQLQLNQDLSILHQDDGSSKNKRGVLPKHATNVMRSWLFQHIGHPYPTEDEKKQIAAQTNLTLLQVNNWFINARRRILQPMLDSSCSETPKTKKKTAQNRPVQRFWPDSIASGVAQPPPSELTMSEGAVVTITTPVNMNVDSLQSLSSDGATLAVQQVMMAGQSEDESVDSTEEDAGALAPAHISGLVLENSDSLQ [chain 1 L67A], for which the ratio to parent is about 0.65.

Variants of B2 are the subject of another experiment. Put plainly: ELISA; PBX1 0.5 µM (highest point of the titration); GST control signal subtracted; parent: 0.8; read off a plot. On the technique in general: ELISA stands for enzyme-linked immunosorbent assay.
For chain 1 MMATQTLSIDSYQDGQQMQVVTELKTEQDPNCSEPDAEGVSPPPVESQTPMDVDKQAIYRHPAFPAAALAFEKCEQSTQGSEGTTSASFDVDIENFVRKQEKEGKPFFCEDPETDNLMVKAIQVLRIHLLELEKVNELCKDFCSRYIACLKTKMNSETLLSGEPGSPYSPVQSQQIQSAITGTISPQGIVVPASALQQGNVAMATVAGGTVYQPVTVVTPQGQVVTQTLSPGTIRIQNSQLQLQLNQDLSILHQDDGSSKNKRGVLPKHATNVMRSWLFQHIGHPYPTEDEKKQIAAQTNLTLLQVNNWFINARRRILQPMLDSSCSETPKTKKKTAQNRPVQRFWPDSIASGVAQPPPSELTMSEGAVVTITTPVNMNVDSLQSLSSDGATLAVQQVMMAGQSEDESVDSTEEDAGALAPAHISGLVLENSDSLQ [chain 1 L63A, chain 1 L66A, chain 1 L67A, chain 1 L70A], the response is ~0.13 Abs, 495 nm.
